The record followed here is PMC4066776.

This assay has as its target S. pneumoniae RecA lacking the first 28 residues (Δ28), purified (S. pneumoniae) (UniProt P0A451). Description: SEC-MALS; purified Δ28RecA; details in Supplementary Results and Supplementary Figure S5. Background: Size exclusion chromatography separates by hydrodynamic size, large species first.

The term stoichiometry N denotes a count of units in the complex or per binding partner. As for “S. pneumoniae RecA lacking the first 28 residues (Δ28), purified (from UniProt P0A451 29-388) (domain or fragment)”, the stoichiometry N came out at 2.
